Test results as given in patent US20220235136A1 (YALE UNIVERSITY, published 2022).

T1: mouse CD93 on transfected HEK293T cells (mouse, UniProt O89103 23-644)
T1 construct: whole, on cells; also called mCD93
T1 sequence (looked up): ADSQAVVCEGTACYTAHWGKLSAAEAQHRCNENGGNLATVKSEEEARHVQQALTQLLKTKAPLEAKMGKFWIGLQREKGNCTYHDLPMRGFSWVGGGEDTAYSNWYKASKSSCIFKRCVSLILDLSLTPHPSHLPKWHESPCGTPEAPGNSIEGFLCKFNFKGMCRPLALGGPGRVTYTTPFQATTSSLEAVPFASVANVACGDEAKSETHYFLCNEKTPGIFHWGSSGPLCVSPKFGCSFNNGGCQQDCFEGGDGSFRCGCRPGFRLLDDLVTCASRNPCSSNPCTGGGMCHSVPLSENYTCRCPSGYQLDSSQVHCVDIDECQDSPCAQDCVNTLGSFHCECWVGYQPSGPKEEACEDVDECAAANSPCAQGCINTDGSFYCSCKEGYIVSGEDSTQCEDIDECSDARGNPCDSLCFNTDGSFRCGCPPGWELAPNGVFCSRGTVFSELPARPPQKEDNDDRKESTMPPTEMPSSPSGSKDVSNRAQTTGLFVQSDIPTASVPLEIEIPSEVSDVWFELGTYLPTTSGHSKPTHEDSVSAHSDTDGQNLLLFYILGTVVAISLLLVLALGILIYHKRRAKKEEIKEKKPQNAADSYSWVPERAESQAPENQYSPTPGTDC

T2: recombinant human CD93 protein (R&D Systems) (human, UniProt Q9NPY3 24-580)
T2 construct: Bought soluble protein
T2 sequence: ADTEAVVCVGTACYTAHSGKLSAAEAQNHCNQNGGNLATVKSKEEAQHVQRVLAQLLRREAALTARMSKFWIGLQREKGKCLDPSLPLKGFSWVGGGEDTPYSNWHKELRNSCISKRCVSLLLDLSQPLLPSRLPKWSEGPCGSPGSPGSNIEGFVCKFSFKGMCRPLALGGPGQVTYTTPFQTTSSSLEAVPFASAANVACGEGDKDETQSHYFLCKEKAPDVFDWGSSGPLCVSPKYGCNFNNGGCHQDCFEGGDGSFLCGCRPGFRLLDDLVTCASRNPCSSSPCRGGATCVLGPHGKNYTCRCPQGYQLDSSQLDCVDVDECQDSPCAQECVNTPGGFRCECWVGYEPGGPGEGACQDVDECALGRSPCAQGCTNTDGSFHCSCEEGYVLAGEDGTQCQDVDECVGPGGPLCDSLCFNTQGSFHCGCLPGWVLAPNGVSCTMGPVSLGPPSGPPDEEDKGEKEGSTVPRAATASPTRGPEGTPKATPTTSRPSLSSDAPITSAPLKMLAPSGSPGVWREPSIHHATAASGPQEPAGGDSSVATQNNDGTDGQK

B1: Mouse IGFBP7 (Fc-tag), Sino Biological (Fc fusion, UniProt Q61581 26-281, looked up)
chain: SSSDACGPCVPASCPALPRLGCPLGETRDACGCCPVCARGEGEPCGGGAAGRGHCAPGMECVKSRKRRKGKAGAAAGGPATLAVCVCKSRYPVCGSNGITYPSGCQLRAASLRAESRGEKAITQVSKGTCEQGPSIVTPPKDIWNVTGAKVFLSCEVIGIPTPVLIWNKVKRDHSGVQRTELLPGDRENLAIQTRGGPEKHEVTGWVLVSPLSKEDAGEYECHASNSQGQASAAAKITVVDALHEIPLKKGEGAQL
notes: also called mouse IGFBP7-Ig; not shown: Fc tag
B2: IGFBP7 protein (R&D Systems), labelled with a His-Tag Labeling Kit for MST (ligand)
chain: SSSDTCGPCEPASCPPLPPLGCLLGETRDACGCCPMCARGEGEPCGGGGAGRGYCAPGMECVKSRKRRKGKAGAAAGGPGVSGVCVCKSRYPVCGSDGTTYPSGCQLRAASQRAESRGEKAITQVSKGTCEQGPSIVTPPKDIWNVTGAQVYLSCEVIGIPTPVLIWNKVKRGHYGVQRTELLPGDRDNLAIQTRGGPEKHEVTGWVLVSPLSKEDAGEYECHASNSQGQASASAKITVVDALHEIPVKKGEGAEL
modifications: RED-tris-NTA fluorescent dye bound to the His tag
notes: Bought; also called human IGFBP7; not shown: His tag implied by the His-Tag Labeling Kit

Columns and labels:
[1] = biological target: T1, mouse CD93 on transfected HEK293T cells; test: flow cytometry, mouse IGFBP7-Ig on mouse CD93-transduced or control HEK293T cells
[2] = biological target: T2, recombinant human CD93 protein (R&D …); test: microscale thermophoresis: 10 nM labelled IGFBP7, CD93 titrated from 5.9 uM to 180 pM (FIG. 4E)

Binder	binding result [1]	Kd [2]
B1	binds	–
B2	–	53.1 nM
